Here are results for one molecule from doi:10.1101/2024.04.09.588654 (bioRxiv, 2024).

The assay concerns the target Phosphatidylinositol 4-kinase alpha (PI4KA), subunit of the PI4KA complex (human, UniProt P42356 1-2102). Description: cryo-EM structure.

B1: TTC7B, subunit of the PI4KA complex (natural protein)
chain: MATKKAGSRLETEIERCRSECQWERIPELVKQLSAKLIANDDMAELLLGESKLEQYLKEHPLRQGASPRGPKPQLTEVRKHLTAALDRGNLKSEFLQESNLIMAKLNYVEGDYKEALNIYARVGLDDLPLTAVPPYRLRVIAEAYATKGLCLEKLPISSSTSNLHVDREQDVITCYEKAGDIALLYLQEIERVILSNIQNRSPKPGPAPHDQELGFFLETGLQRAHVLYFKNGNLTRGVGRFRELLRAVETRTTQNLRMTIARQLAEILLRGMCEQSYWNPLEDPPCQSPLDDPLRKGANTKTYTLTRRARVYSGENIFCPQENTEEALLLLLISESMANRDAVLSRIPEHKSDRLISLQSASVVYDLLTIALGRRGQYEMLSECLERAMKFAFEEFHLWYQFALSLMAAGKSARAVKVLKECIRLKPDDATIPLLAAKLCMGSLHWLEEAEKFAKTVVDVGEKTSEFKAKGYLALGLTYSLQATDASLRGMQEVLQRKALLAFQRAHSLSPTDHQAAFYLALQLAISRQIPEALGYVRQALQLQGDDANSLHLLALLLSAQKHYHDALNIIDMALSEYPENFILLFSKVKLQSLCRGPDEALLTCKHMLQIWKSCYNLTNPSDSGRGSSLLDRTIADRRQLNTITLPDFSDPETGSVHATSVAASRVEQALSEVASSLQSSAPKQGPLHPWMTLAQIWLHAAEVYIGIGKPAEATACTQEAANLFPMSHNVLYMRGQIAELRGSMDEARRWYEEALAISPTHVKSMQRLALILHQLGRYSLAEKILRDAVQVNSTAHEVWNGLGEVLQAQGNDAAATECFLTALELEASSPAVPFTIIPRVL
Consider B1, for which the binding result was “binds”.
